Assays:
D16G TCL1 = D16G TCL1 (UniProt P56279)
[1] = system: T1, 10/24 peptide (amino acid residue 10-24 of human TCL1, NH2-AVTDHPDRLWAWEKF-COOH)
T1 sequence: AVTDHPDRLWAWEKF

[2] = system: T2, peptide having repetitive sequence of 11-23 from 10-24 (NH2-VTDHPDRLWAWEK-RRR-VTDHPDRLWAWEK-COOH)
T2 sequence: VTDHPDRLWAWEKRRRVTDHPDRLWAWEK

Sequence of D16G TCL1 (P56279 whole entry D16G): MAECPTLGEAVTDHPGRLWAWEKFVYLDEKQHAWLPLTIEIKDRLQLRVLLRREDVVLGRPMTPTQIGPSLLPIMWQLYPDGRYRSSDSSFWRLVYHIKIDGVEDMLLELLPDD

Akt (in vitro kinase assay of Example 1)
Akt kinase activity in an in vitro kinase assay (GSK-3a phosphorylation, Akt Ser-473 phosphorylation) (D16G TCL1): D16G TCL1 did not affect the Akt kinase activity even though in a dose escalation experiment

Recombinant Akt protein extracted from mammalian cells
In vitro Akt kinase assay, GSK phosphorylation by western blotting, peptide at 200 µM [1]: the 10/24 peptide was effectively inhibited the phosphorylation potency for GSK peptide of Akt
In vitro Akt kinase assay, GSK phosphorylation [2]: The similar inhibition effect on Akt kinase activity was also identified

— patent US20120034651
